The source of these data is patent publication US20230365662A1.

B1: KB001 parental mouse Fab VH variant N100S (Fab, V domains shown)
VH: EVQLKQSGPGLVAPSQSLSITCTVSGFSLSIYSVHWVRQPPGKGLEWLGMIWGGGSSDYNSALKSRLSISKDNSKSQVFLKMNSLQTDDTAMYYCARNGSFYAMDYWGQGTSVTVSS
VL: QIVLTQSPAIMSASLGERVTMTCTASSSVSSSFLHWYQQKPGSSPQLWIYSTSNLASGVPARFSGSGSGTSYSLTISSMEAEDAATYYCHQYHHSPYIYTFGGGTKLEIK
B2: KB001 parental mouse Fab VH variant N100K (Fab, V domains shown)
VH: B1 VH with S100K
VL: B1 VL
B3: KB001 parental mouse Fab VH variant F101W (Fab, V domains shown)
VH: B1 VH with S100N, F101W
VL: B1 VL
B4: KB001 parental mouse Fab VH variant N100Q (Fab, V domains shown)
VH: B1 VH with S100Q
VL: B1 VL
B5: KB001 parental mouse Fab VH variant N100L (Fab, V domains shown)
VH: B1 VH with S100L
VL: B1 VL
B6: KB001 parental mouse Fab VH variant A103V (Fab, V domains shown)
VH: B1 VH with S100N, A103V
VL: B1 VL
B7: KB001 parental mouse Fab VH variant N100F (Fab, V domains shown)
VH: B1 VH with S100F
VL: B1 VL
B8: KB001 parental mouse Fab VH variant N100C (Fab, V domains shown)
VH: B1 VH with S100C
VL: B1 VL
B9: KB001 parental mouse Fab VH variant M104L (Fab, V domains shown)
VH: B1 VH with S100N, M104L
VL: B1 VL
B10: KB001 parental mouse Fab VH variant N100Y (Fab, V domains shown)
VH: B1 VH with S100Y
VL: B1 VL
B11: KB001 parental mouse Fab VH variant A103C (Fab, V domains shown)
VH: B1 VH with S100N, A103C
VL: B1 VL
B12: KB001 parental mouse Fab VH variant A103K (Fab, V domains shown)
VH: B1 VH with S100N, A103K
VL: B1 VL
B13: KB001 parental mouse Fab VH variant N100E (Fab, V domains shown)
VH: B1 VH with S100E
VL: B1 VL
B14: KB001 parental mouse Fab VH variant F101M (Fab, V domains shown)
VH: B1 VH with S100N, F101M
VL: B1 VL
B15: KB001 parental mouse Fab VH variant A103M (Fab, V domains shown)
VH: B1 VH with S100N, A103M
VL: B1 VL
B16: KB001 parental mouse Fab VH variant F101S (Fab, V domains shown)
VH: B1 VH with S100N, F101S
VL: B1 VL
B17: KB001 parental mouse Fab VH variant A103I (Fab, V domains shown)
VH: B1 VH with S100N, A103I
VL: B1 VL
B18: KB001 parental mouse Fab VH variant N100G (Fab, V domains shown)
VH: B1 VH with S100G
VL: B1 VL
B19: KB001 parental mouse Fab VH variant F101L (Fab, V domains shown)
VH: B1 VH with S100N, F101L
VL: B1 VL
B20: KB001 parental mouse Fab (WT) (Fab, V domains shown)
VH: B1 VH with S100N
VL: B1 VL
B21: KB001 parental mouse Fab VH variant A103L (Fab, V domains shown)
VH: B1 VH with S100N, A103L
VL: B1 VL
B22: KB001 parental mouse Fab VH variant Y106I (Fab, V domains shown)
VH: B1 VH with S100N, Y106I
VL: B1 VL
B23: KB001 parental mouse Fab VH variant N100A (Fab, V domains shown)
VH: B1 VH with S100A
VL: B1 VL
B24: KB001 parental mouse Fab VH variant Y106Q (Fab, V domains shown)
VH: B1 VH with S100N, Y106Q
VL: B1 VL
B25: KB001 parental mouse Fab VH variant N100R (Fab, V domains shown)
VH: B1 VH with S100R
VL: B1 VL
B26: KB001 parental mouse Fab VH variant A103G (Fab, V domains shown)
VH: B1 VH with S100N, A103G
VL: B1 VL
B27: KB001 parental mouse Fab VH variant N100T (Fab, V domains shown)
VH: B1 VH with S100T
VL: B1 VL

Substitutions are numbered along the chain they refer to. In names and notes the source's numbering stands. Several values for one entry are separate records, joined by “and”; a condition that tells them apart may be missing. Identical values can stand only once.

The assay addresses HRgpA-6H (Porphyromonas gingivalis) (UniProt P28784). Briefly: ELISA, Fab FASEBA supernatant on coated HRgpA-6H (0.0625 ug/ml). A general note: In an ELISA, binding on a coated surface is turned into a signal by an enzyme label.
UniProt P28784, sequence (P28784 228-991 limits assumed): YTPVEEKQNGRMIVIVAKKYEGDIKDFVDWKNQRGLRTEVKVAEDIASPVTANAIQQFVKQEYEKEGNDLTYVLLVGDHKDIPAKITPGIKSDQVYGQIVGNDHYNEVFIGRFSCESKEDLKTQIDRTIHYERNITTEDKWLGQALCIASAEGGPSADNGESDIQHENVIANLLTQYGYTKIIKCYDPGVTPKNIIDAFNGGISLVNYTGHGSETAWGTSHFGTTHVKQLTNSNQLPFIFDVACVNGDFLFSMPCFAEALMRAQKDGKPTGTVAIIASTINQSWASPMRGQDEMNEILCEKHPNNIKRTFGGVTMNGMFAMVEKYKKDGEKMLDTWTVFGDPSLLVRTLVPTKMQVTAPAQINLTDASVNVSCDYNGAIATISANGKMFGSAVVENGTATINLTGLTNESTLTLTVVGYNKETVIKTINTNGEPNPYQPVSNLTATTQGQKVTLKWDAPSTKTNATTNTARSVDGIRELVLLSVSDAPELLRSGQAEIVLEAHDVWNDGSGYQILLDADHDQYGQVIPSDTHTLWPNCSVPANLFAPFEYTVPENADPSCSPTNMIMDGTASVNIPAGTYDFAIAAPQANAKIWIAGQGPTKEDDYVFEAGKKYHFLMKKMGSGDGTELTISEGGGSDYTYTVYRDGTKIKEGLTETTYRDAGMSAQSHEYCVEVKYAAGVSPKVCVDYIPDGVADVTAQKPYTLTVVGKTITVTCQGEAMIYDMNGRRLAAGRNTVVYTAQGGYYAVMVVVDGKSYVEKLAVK
Regarding B1, the OD450nm was 0.799 and 0.844 and 0.805; the Ratio OD(Variant)/OD(WT) was 0.943 and 0.996 and 0.95.
For the molecule B2, the OD450nm was 0.801 and 0.791; the Ratio OD(Variant)/OD(WT) was 0.946 and 0.934.
Consider B3, for which the OD450nm was 0.825 and 0.828 and 0.802; the Ratio OD(Variant)/OD(WT) is 0.974 and 0.978 and 0.947.
Take B4: the OD450nm turned out to be 0.846 and the Ratio OD(Variant)/OD(WT) was 0.999.
In the case of B5, the OD450nm was 0.817 and 0.736 and 0.789; the Ratio OD(Variant)/OD(WT) is 0.965 and 0.869 and 0.932.
As to B6, the OD450nm was 0.849 and 0.807; the Ratio OD(Variant)/OD(WT) is 0.985 and 0.936.
B7: the OD450nm amounted to 0.779 and the Ratio OD(Variant)/OD(WT) is 0.92.
Take B8: the OD450nm was 0.688 and the Ratio OD(Variant)/OD(WT) is 0.812.
The corresponding values for B9 are 0.786 and 0.904.
For the molecule B10, the OD450nm is 0.757 and 0.784 and 0.699; the Ratio OD(Variant)/OD(WT) was 0.894 and 0.926 and 0.825.
Regarding B11, the OD450nm worked out at 0.77 and the Ratio OD(Variant)/OD(WT) amounted to 0.893.
As for B12, the OD450nm came to 0.723 and the Ratio OD(Variant)/OD(WT) worked out at 0.839.
On to B13, for which the OD450nm is 0.823 and the Ratio OD(Variant)/OD(WT) stood at 0.972.
The corresponding values for B14 are 0.755 and 0.891.
The corresponding values for B15 are 0.811 and 0.941.
In the case of B16, the OD450nm is 0.678 and 0.725; the Ratio OD(Variant)/OD(WT) was 0.8 and 0.856.
B17: the OD450nm was 0.695 and 0.693; the Ratio OD(Variant)/OD(WT) was 0.806 and 0.804.
B18: the OD450nm is 0.769 and 0.814; the Ratio OD(Variant)/OD(WT) was 0.908 and 0.961.
Turning to B19, the OD450nm is 0.681 and the Ratio OD(Variant)/OD(WT) is 0.804.
The corresponding values for B20 are 0.831 and 0.956.
As to B21, the OD450nm is 0.783 and the Ratio OD(Variant)/OD(WT) came to 0.908.
For the molecule B22, the OD450nm is 0.73 and 0.728 and 0.764; the Ratio OD(Variant)/OD(WT) was 0.949 and 0.947 and 0.993.
On to B23, for which the OD450nm worked out at 0.809 and the Ratio OD(Variant)/OD(WT) is 0.955.
Consider B24, for which the OD450nm was determined as 0.768 and the Ratio OD(Variant)/OD(WT) is 0.999.
As to B25, the OD450nm stood at 0.788 and the Ratio OD(Variant)/OD(WT) worked out at 0.93.
For B26, the OD450nm is 0.815 and 0.804 and 0.755; the Ratio OD(Variant)/OD(WT) was 0.945 and 0.933 and 0.876.
For B27, the OD450nm is 0.756 and 0.783; the Ratio OD(Variant)/OD(WT) is 0.893 and 0.924.
